Experimental data reported in the supplement of paper PMC9170038.

Test system: MS2 coat protein
Assay: apparent KD of MS2 coat protein; designed switch direction (-1 OFF switch, 1 ON switch): -1; higher = weaker reporter binding
Method in brief: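 Normalised cluster fluorescence was curve-fitted, and each design's median over clusters is its apparent KD. Before this, SNAP-549-labelled MS2 coat protein was titrated from 0.7 or 1.5 nM, doubling to 3 µM, over RNA switches transcribed on Illumina chips by stalled E. coli RNA polymerase. Titrations had no input, 200 uM small-molecule ligand, or an oligonucleotide input, and steps lasted 0.8–1.5 h (lowest) to 10–20 min (highest).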

[1] = Eterna round: R95, input ligand: FMN 200 uM
[2] = Eterna round: R95, input ligand: microRNA oligo, concentration not stated
[3] = Eterna round: R95, input ligand: none
[4] = input ligand: microRNA oligo, concentration not stated

| Sequence | apparent KD of MS2 coat protein [1] | apparent KD of MS2 coat protein [2] | apparent KD of MS2 coat protein [3] | apparent KD of MS2 coat protein (input ligand: FMN 200 uM) | apparent KD of MS2 coat protein (input ligand: none) | apparent KD of MS2 coat protein [4] |
| --- | --- | --- | --- | --- | --- | --- |
| UGUACGAUGCGUGCUGACAUGCGUCGUGCAGCAGGUGUUACAUGAGGAUCACCCAUGUCCUCAUUUGCUCGUCUUGU [SL-sv3-2.09 JL mod] (puzzle: Sensor v3, turn-off variant 2) | 379 nM | 185 nM | 374 nM |  |  |  |
| UGUACUAACACGUAAGUGUUAGUACUAUAAGCUUGUGUUACAUGAGGAUCACCCAUGUCCUCAUAAGCUCGUCUUAA [Mat - Sensor v3 - Turn-off var 2 - D72] (puzzle: Sensor v3, turn-off variant 2) | 39.7 nM | 182 nM | 37.2 nM |  |  |  |
| UGUAGGUCUACCUUGGUGGAUCUGCAUUUUUGCAGGUGUACAUGAGGAUCACCCAUGUCCUCAUUUGCUCGUCUUAU [JL turnoff v2 99.31] (puzzle: Sensor v3, turn-off variant 2) | 467 nM | 560 nM | 542 nM |  |  |  |
| UGUCUCCUCGUCAGGAUAUUUCGUUGUGCAGACUGAAAGAAGGGACAUGAGGAUCACCCAUGUACCUCGUCGGU [Eternabot (L2) Solution 98] (Eterna round: R97, puzzle: Brourd's mod of Exclusion 4) |  |  |  | 22.3 nM | 16.9 nM |  |
| UGUGCGUAUGUGAGGAUAUGCUGGUCCUUGGAUCAGCAGAAGGCACAUGAGGAUCACCCAUGUGGUGUCGUACU [salish99_Bmod_Ex4_009] (puzzle: Brourd's mod of Exclusion 4) |  | 202 nM |  |  |  |  |
| UGUGCGUAUGUGAGGAUAUGCUGGUCCUUGGCUCGGCAGAAGGCACAUGAGGAUCACCCAUGUGGUGUCGUACA [salish99_Bmod_ex4_071] (puzzle: Brourd's mod of Exclusion 4) |  | 158 nM |  |  |  |  |
| UGUGUGAGACAGGAUAUGCUGGAUGUGUGGCGGGUAGAAGGGUCUACAUGAGGAUCACCCAUGUGGCCGGUUGG [Ex6 #69] (Eterna round: R97, puzzle: Exclusion 6) |  |  |  | 15.8 nM | 18.9 nM |  |
| UGUUGUCGCGCAGGAUAUUGUCAACAGGCAGUAGGAUAUCCGAAAGGAGAAGGACCGCCAACAGGCGAGAAGGGCGGGACAACU [pwkr exNG2 2xF7 2xFMN.9] (Eterna round: R96, puzzle: Exclusion NG 2) |  |  |  | 32.1 nM | 16 nM | 35.7 nM |
| UGUUGUCGCGUAGGAUAUGUAUGAGGAUCACCCAUAAGAGUAUAUUUACCAUGAGGAUCACCCAUGUAGAAGGACGGGACAACU [pwkr exNG2 2xF5 1xFMN.12] (Eterna round: R96, puzzle: Exclusion NG 2) |  |  |  | 232 nM | 127 nM | 75.6 nM |
| UGUUGUUACGCAGGAUAUGAGGAUCACCCAUAUUAGGAUAUCGAAAGAGAAGUUCUGAGGAUCACCCAGAAGGGCGGGUUAACA [pwkr exNG2 2xF5 2xFMN.35] (Eterna round: R96, puzzle: Exclusion NG 2) |  |  |  | 117 nM | 53.2 nM | 37.8 nM |
| UGUUGUUACGUAGGAUAUCCACCAACAGGUGGAAGGAUAUGUACGCAGAAGGUUCGCCAACAGGCGGAGAAGGACGGGUUAACA [pwkr exNG2 2xF7 2xFMN.27] (Eterna round: R96, puzzle: Exclusion NG 2) |  |  |  | 1370 nM | 300 nM | 473 nM |
| UGUUGUUCAGGAUAUGAUGUAUAAUACAUGAGGAUCACCCAUGUAGAUCCUGCUUUGGCGUCAGAAGGGAAUGUUG [salish99_ex5_r4_107] (Eterna round: R97, puzzle: Exclusion 5) |  |  |  | 55.9 nM | 51.8 nM |  |
| UGUUGUUGAUAGGAUAUACAGGUAGGAGUAGGAGUAGAAGGAUCUACAUGAGGAUCACCCAUGUAGGAGUGAGA [JR_E6_Sub002] (puzzle: Exclusion 6) |  | 14.9 nM |  |  |  |  |
| UGUUUAUAUGAAGGAUAUACUUAACAUGAGGAUCACCCAUGUGGUGUUGUGAGUGAGUGAGUUUAGUAGAAGGUCAAUUCUUUU [JMF's solution 97] (Eterna round: R96, puzzle: Exclusion NG 2) |  |  |  | 996 nM | 425 nM | 553 nM |
| UUAAAUCAUGUAGGAUAUGCAAGGCGAACCUAUGCAGAAGGACAUGAGGAUCACCCAUGUGCUGCGGUCUGCGUACAGAUCGCU [JL ENG1 1.02] (Eterna round: R96, puzzle: Exclusion NG 1) |  |  |  | 503 nM | 39 nM | 30.7 nM |
| UUAAAUCAUGUAGGAUAUGCAUAGCAAAGCUAUGCAGAAGGACAUGAGGAUCACCCAUGUGCUUGCGUCCGCGUACGGAUGCUA [Mat - Exclusion NG 1 - Mod of JL - D68] (Eterna round: R96, puzzle: Exclusion NG 1) |  |  |  | 733 nM | 138 nM | 90.5 nM |
| UUAAAUCAUGUAGGAUAUGCGUGGAGAAGCUAUGCAGAAGGACAUGAGGAUCACCCAUGUGCUUCCGUCUGAGAACAGACGGUA [Mat - Exclusion NG 1 - Mod of JL - D13] (Eterna round: R96, puzzle: Exclusion NG 1) |  |  |  | 210 nM | 45.7 nM | 49.9 nM |
| UUAAAUCAUGUAGGAUAUGCGUGGCGAAGCUAUGCAGAAGGACAUGAGGAUCACCCAUGUGCUAGCGUCUGCGUACAGAUGCAA [JL ENG1 1.11] (Eterna round: R96, puzzle: Exclusion NG 1) |  |  |  | 189 nM | 76.7 nM | 65.2 nM |
| UUAACAUGCUGGUGAUCAUACAUGAGGAUCACCCAUGUAACAAGCUUUUUGCUCGUCUUAUAAGAUUACUAGUAUGU [Stov1/10-A1] (Eterna round: R97, puzzle: Sensor, turn-off variant 1) |  |  |  | 24.2 nM | 26.4 nM |  |
| UUAACCAGAGGAUAUGCGAAUAAAUAAAACUUUUUUUUUUAACAUGAGGAUCACCCAUGUAGAAGGCUGCAAUU [Ex2 #31] (Eterna round: R97, puzzle: Exclusion 2) |  |  |  | 32 nM | 46.8 nM |  |
| UUAAGUAUAGAGGAUAUAUAAUAUUUAUUAACUAUAGAAGGCUAUACAUGAGGAUCACCCAUGUAUAUUGGGAU [JR_Ex6_Sub067] (Eterna round: R97, puzzle: Exclusion 6) |  |  |  | 59.1 nM | 41 nM |  |
| UUAAUGGCUGUGAGGAUAUCGGAUAGAUAGAUAUUCGAGAAGGCACAUGAGGAUCACCCAUGUGUGAUCAGAGA [Brourd's EX4 #62] (Eterna round: R97, puzzle: Brourd's mod of Exclusion 4) |  |  |  | 466 nM | 144 nM |  |
| UUAAUGGUUGUGAGGAUAUCGGAUAGAUAGAUAUUCGAGAAGGCACAUGAGGAUCACCCAUGUGUGAUCAGAAA [Brourd's EX4 #61] (Eterna round: R97, puzzle: Brourd's mod of Exclusion 4) |  |  |  | 410 nM | 202 nM |  |
| UUAAUUAAUUAAUUAGAUCCUCACAUGAGGAUCACCCAUGUGCAGGAUAUCAGCUCGAUUAGAGCUGAGAAGGGCACUAUUAAU [ExNG3/10-B4] (Eterna round: R96, puzzle: Exclusion NG 3) |  |  |  | 56.1 nM | 127 nM | 85 nM |
